According to the supplement of paper PMC11246515:
± gives the standard deviation of the averaged measurements.

Assay: total protein half-life in vivo (active degradation + dilution); higher = more stable protein
[1] = E. coli NCM3722 delta-smpB, growth: N-lim chemostat, doubling time 6 h
[2] = wild type E. coli NCM3722, growth: C-lim chemostat, doubling time 12 h
[3] = E. coli NCM3722 delta-clpP delta-lon delta-hslV, growth: N-lim chemostat, doubling time 6 h
[4] = E. coli NCM3722 delta-clpP, growth: N-lim chemostat, doubling time 6 h
[5] = E. coli NCM3722 delta-lon, growth: N-lim chemostat, doubling time 6 h
[6] = wild type E. coli NCM3722, growth: C-lim chemostat, doubling time 3 h
[7] = wild type E. coli NCM3722, growth: C-lim chemostat, doubling time 6 h
[8] = wild type E. coli NCM3722, growth: N-lim chemostat, doubling time 6 h
[9] = wild type E. coli NCM3722, growth: N-lim chemostat, doubling time 12 h
[10] = wild type E. coli NCM3722, growth: P-lim chemostat, doubling time 12 h
[11] = E. coli NCM3722 delta-hslV, growth: N-lim chemostat, doubling time 6 h
[12] = wild type E. coli NCM3722, growth: P-lim chemostat, doubling time 6 h

| Sequence | total protein half-life in vivo [1] | total protein half-life in vivo [2] | total protein half-life in vivo [3] | total protein half-life in vivo [4] | total protein half-life in vivo [5] | total protein half-life in vivo [6] | total protein half-life in vivo [7] | total protein half-life in vivo [8] | total protein half-life in vivo [9] | total protein half-life in vivo [10] | total protein half-life in vivo [11] | total protein half-life in vivo [12] |
| --- | --- | --- | --- | --- | --- | --- | --- | --- | --- | --- | --- | --- |
| MIKRTLLAAAIFSALPAYAGLTSITAGYDFTDYSGDHGNRNLAYAELVAKVENATLLFNLSQGRRDYETEHFNATRGQGAVWYKWNNWLTTRTGIAFADNTPVFARQDFRQDINLALLPKTLFTTGYRYTKYYDDVEVDAWQGGVSLYTGPVITSYRYTHYDSSDAGGSYSNMISVRLNDPRGTGYTQLWLSRGTGAYTYDWTPETRYGSMKSVSLQRIQPLTEQLNLGLTAGKVWYDTPTDDFNGLQLAARLTWKF | > 8 h | 15.4 h | – | – | – | – | – | – | – | – | – | – |
| MIKVLIVDDEPLARENLRVFLQEQSDIEIVGECSNAVEGIGAVHKLRPDVLFLDIQMPRISGLEMVGMLDPEHRPYIVFLTAFDEYAIKAFEEHAFDYLLKPIDEARLEKTLARLRQERSKQDVSLLPENQQALKFIPCTGHSRIYLLQMKDVAFVSSRMSGVYVTSHEGKEGFTELTLRTLESRTPLLRCHRQYLVNLAHLQEIRLEDNGQAELILRNGLTVPVSRRYLKSLKEAIGL [P0AFT5] | 3.83 h | – | 5.88 h | 4.54 ± 0.31 h | 5.56 h | 3.04 ± 0.45 h | 5.55 ± 0.23 h | 5.02 ± 0.13 h | 7.03 ± 0.46 h | 10.1 ± 0.16 h | – | – |
| MILHAQAKHGKPGLPWLVFLHGFSGDCHEWQEVGEAFADYSRLYVDLPGHGGSAAISVDGFDDVTDLLRKTLVSYNILDFWLVGYSLGGRVAMMAACQGLAGLCGVIVEGGHPGLQNAEQRAERQRSDRQWVQRFLTEPLTAVFADWYQQPVFASLNDDQRRELVALRSNNNGATLAAMLEATSLAVQPDLRANLSARTFAFYYLCGERDSKFRALAAELAADCHVIPRAGHNAHRENPAGVIASLAQILRF | – | – | – | – | – | 3.44 h | – | – | – | – | – | – |
| MILIIYAHPYPHHSHANKRMLEQARTLEGVEIRSLYQLYPDFNIDIAAEQEALSRADLIVWQHPMQWYSIPPLLKLWIDKVFSHGWAYGHGGTALHGKHLLWAVTTGGGESHFEIGAHPGFDVLSQPLQATAIYCGLNWLPPFAMHCTFICDDETLEGQARHYKQRLLEWQEAHHG [P0A754] | 6.82 h | 10.9 ± 0.14 h | – | 6.16 h | 6.37 h | – | 4.93 h | – | 10.5 ± 2.2 h | 10.3 ± 1.5 h | 5.27 h | 6.43 ± 0.21 h |
| MILTDPEWQAVLLSLKVSSLAVLFSLPFGIFFAWLLVRCTFPGKALLDSVLHLPLVLPPVVVGYLLLVSMGRRGFIGERLYDWFGITFAFSWRGAVLAAAVMSFPLMVRAIRLALEGVDVKLEQAARTLGAGRWRVFFTITLPLTLPGIIVGTVLAFARSLGEFGATITFVSNIPGETRTIPSAMYTLIQTPGGESGAARLCIISIALAMISLLISEWLARISRERAGR [P0AF01] | – | 9.85 h | 4.97 h | 6.15 h | – | 3.03 h | 4.97 h | 5.21 h | 9.16 h | – | – | – |
| MILTPIRRYGAMILMLLTLVFSSEVLAKTHTTTASQKSHLTKASNKQVSSKQEYSRNSAKSSSLPDLRKYPSGTPRKKAFLRTVMPYITSQNAAITAERNWLISKQYQGQWSPAERARLKDIAKRYKVKWSGNTRKIPWNTLLERVDIIPTSMVATMAAAESGWGTSKLARNNNNLFGMKCMKGRCTNAPGKVKGYSQFSSVKESVSAYVTNLNTHPAYSSFRKSRAQLRKADQEVTATAMIHKLKGYSTKGKSYNNYLFAMYQDNQRLIAAHM | 3.76 ± 0.26 h | 5.88 ± 0.34 h | 0.848 h | – | – | 1.22 h | 2.47 ± 0.18 h | – | – | – | – | – |
| MINALGLLEVDGMVAAIDAADAMLKAANVRLLSHEVLDPGRLTLVVEGDLAACRAALDAGCAAAMRTGRVISRKEIGRPDDDTQWLVTGFNRQPKQPVREPDAPVIVAESADELLALLTSVRQGMTAGEVAAHFGWPLEKARNALEQLFSAGTLRKRSSRYRLKPH | – | – | – | – | – | 1.02 ± 0.097 h | – | – | – | – | – | – |
| MINDIKWVQAQRKATDWRQAVEIATRPLVAYGAAQPCYVNGIIENTLNWGPYYLIAPGIALPHARPEQGANYNQVSITTLRTPVAFGNEECDPVWLLLCVSATDANAHILTIQRISQFIDSPQRLTAVGNASTDDALFALVSG | 4.08 ± 0.47 h | 6.74 ± 0.098 h | 4.94 h | 4.17 ± 0.58 h | 4.24 ± 0.33 h | – | 4.65 ± 0.36 h | 4.66 h | 8.43 ± 2.6 h | – | 4.11 h | 6.04 h |
| MINVLLVDDHELVRAGIRRILEDIKGIKVVGEASCGEDAVKWCRTNAVDVVLMDMSMPGIGGLEATRKIARSTADVKIIMLTVHTENPLPAKVMQAGAAGYLSKGAAPQEVVSAIRSVYSGQRYIASDIAQQMALSQIEPEKTESPFASLSERELQIMLMITKGQKVNEISEQLNLSPKTVNSYRYRMFSKLNIHGDVELTHLAIRHGLCNAETLSSQ [P0AED5] | 1.67 ± 0.048 h | 4.05 ± 0.16 h | 5.39 ± 0.6 h | 2.492 ± 0.024 h | 2.66 ± 0.048 h | 1.72 ± 0.12 h | 3.04 ± 0.16 h | 1.89 ± 0.24 h | 2.67 ± 0.15 h | 3.89 ± 0.4 h | 1.84 ± 0.24 h | 1.8 ± 0.087 h |
| MINVQNVSKTFILHQQNGVRLPVLNRASLTVNAGECVVLHGHSGSGKSTLLRSLYANYLPDEGQIQIKHGDEWVDLVTAPARKVVEIRKTTVGWVSQFLRVIPRISALEVVMQPLLDTGVPREACAAKAARLLTRLNVPERLWHLAPSTFSGGEQQRVNIARGFIVDYPILLLDEPTASLDAKNSAAVVELIREAKTRGAAIVGIFHDEAVRNDVADRLHPMGASS | – | – | – | – | – | – | – | – | – | 0.788 ± 0.69 h | – | 0.0732 h |
| MIPVERRQIILEMVAEKGIVSIAELTDRMNVSHMTIRRDLQKLEQQGAVVLVSGGVQSPGRVAHEPSHQVKTALAMTQKAAIGKLAASLVQPGSCIYLDAGTTTLAIAQHLIHMESLTVVTNDFVIADYLLDNSNCTIIHTGGAVCRENRSCVGEAAATMLRSLMIDQAFISASSWSVRGISTPAEDKVTVKRAIASASRQRVLVCDATKYGQVATWLALPLSEFDQIITDDGLPESASRALVKQDLSLLVAKNE | 4.76 ± 0.23 h | 8.85 ± 0.59 h | 5.5397 ± 0.0019 h | 4.93 ± 0.35 h | – | 2.62 ± 0.12 h | 5.33 ± 0.07 h | 4.82 ± 0.13 h | 8.78 ± 0.59 h | 9.046 ± 0.035 h | 4.72 ± 0.089 h | 4.69 ± 0.52 h |
